Assays:
Assay in all cases: cell-based or functional assay
[1] = biological target: human FGFR1c/βKlotho receptor (human) (UniProt P11362)
[2] = biological target: human FGFR3c/βKlotho receptor (human) (UniProt P22607)
[3] = biological target: human FGFR2c/βKlotho receptor (human) (UniProt P21802)
[4] = biological target: cynomolgus monkey FGFR1c/βKlotho receptor (cynomolgus monkey)
[5] = biological target: human FGFR4/βKlotho receptor (human) (UniProt P22455)
Sequence of human FGFR4/βKlotho receptor (human) (P22455 22-802, chain 1 of 2): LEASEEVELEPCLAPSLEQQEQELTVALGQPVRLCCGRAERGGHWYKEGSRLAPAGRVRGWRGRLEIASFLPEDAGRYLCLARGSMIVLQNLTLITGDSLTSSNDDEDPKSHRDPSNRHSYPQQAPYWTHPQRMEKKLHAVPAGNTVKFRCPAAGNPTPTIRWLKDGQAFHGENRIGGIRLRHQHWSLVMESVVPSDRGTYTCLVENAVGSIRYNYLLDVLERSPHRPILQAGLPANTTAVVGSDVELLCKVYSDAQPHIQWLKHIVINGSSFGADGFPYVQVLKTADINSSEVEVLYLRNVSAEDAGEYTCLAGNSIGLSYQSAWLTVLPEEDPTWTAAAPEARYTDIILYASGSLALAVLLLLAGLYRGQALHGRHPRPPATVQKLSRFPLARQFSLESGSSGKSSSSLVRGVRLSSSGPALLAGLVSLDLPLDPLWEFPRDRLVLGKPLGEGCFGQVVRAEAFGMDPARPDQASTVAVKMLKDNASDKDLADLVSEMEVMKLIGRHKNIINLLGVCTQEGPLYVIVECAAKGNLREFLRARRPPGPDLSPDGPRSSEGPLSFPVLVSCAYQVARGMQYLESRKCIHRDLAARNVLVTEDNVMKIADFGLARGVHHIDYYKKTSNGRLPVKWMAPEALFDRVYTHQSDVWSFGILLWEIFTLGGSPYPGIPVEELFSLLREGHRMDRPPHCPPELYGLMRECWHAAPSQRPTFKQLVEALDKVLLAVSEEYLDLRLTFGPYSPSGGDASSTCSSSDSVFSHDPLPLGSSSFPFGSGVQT
Sequence of human FGFR4/βKlotho receptor (human) (chain, as listed by the source, chain 2 of 2): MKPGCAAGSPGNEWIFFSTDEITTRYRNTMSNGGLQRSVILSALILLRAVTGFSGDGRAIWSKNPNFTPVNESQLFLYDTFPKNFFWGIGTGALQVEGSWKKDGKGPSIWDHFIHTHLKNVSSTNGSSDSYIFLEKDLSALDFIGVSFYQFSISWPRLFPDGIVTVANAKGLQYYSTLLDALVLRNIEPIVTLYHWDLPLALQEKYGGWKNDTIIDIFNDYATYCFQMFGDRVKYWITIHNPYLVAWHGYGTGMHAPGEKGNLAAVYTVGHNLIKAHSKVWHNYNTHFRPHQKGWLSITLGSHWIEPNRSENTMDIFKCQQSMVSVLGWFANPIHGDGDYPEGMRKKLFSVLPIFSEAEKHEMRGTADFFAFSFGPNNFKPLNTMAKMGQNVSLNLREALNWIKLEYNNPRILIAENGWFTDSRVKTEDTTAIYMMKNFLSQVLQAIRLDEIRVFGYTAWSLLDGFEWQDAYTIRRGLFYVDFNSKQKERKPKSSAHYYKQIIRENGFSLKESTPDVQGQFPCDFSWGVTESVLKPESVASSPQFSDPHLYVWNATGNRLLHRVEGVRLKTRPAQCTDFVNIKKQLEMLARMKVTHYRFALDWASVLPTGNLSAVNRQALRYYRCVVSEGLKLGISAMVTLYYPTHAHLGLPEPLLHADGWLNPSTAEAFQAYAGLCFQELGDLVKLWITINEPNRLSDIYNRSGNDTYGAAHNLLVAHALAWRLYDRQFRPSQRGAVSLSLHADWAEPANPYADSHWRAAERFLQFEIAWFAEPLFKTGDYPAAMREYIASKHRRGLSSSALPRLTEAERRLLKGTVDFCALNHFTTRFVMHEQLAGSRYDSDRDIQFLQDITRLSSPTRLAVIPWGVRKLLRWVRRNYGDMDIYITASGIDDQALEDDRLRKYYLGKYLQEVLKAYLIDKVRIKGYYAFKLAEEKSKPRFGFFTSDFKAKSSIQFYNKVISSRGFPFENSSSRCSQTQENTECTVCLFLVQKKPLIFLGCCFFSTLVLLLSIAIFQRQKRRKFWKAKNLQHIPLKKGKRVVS

Sequence of human FGFR3c/βKlotho receptor (human) (P22607 23-806, chain 1 of 2): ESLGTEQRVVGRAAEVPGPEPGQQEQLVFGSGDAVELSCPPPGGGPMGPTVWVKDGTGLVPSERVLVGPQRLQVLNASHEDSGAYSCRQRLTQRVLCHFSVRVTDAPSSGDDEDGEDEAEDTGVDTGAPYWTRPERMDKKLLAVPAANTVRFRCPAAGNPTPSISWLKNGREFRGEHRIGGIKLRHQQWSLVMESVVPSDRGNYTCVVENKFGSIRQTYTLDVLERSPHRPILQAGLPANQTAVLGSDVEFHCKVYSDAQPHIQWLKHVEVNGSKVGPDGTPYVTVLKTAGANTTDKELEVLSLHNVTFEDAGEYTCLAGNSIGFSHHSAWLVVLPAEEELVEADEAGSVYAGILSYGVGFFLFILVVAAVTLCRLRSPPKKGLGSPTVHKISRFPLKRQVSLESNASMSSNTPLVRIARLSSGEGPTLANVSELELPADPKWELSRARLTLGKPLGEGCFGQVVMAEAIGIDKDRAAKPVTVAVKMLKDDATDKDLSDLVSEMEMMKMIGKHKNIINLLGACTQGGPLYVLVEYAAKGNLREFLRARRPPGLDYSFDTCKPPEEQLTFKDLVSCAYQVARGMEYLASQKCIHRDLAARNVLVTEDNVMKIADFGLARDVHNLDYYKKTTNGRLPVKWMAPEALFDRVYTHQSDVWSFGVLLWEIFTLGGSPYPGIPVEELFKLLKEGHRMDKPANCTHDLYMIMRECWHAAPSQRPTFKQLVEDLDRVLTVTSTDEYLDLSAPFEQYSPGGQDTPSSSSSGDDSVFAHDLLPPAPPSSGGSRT
Sequence of human FGFR3c/βKlotho receptor (human) (chain, as listed by the source, chain 2 of 2): as the sequence (chain, as listed by the source, chain 2 of 2) above
Sequence of human FGFR1c/βKlotho receptor (human) (P11362 22-822, chain 1 of 2): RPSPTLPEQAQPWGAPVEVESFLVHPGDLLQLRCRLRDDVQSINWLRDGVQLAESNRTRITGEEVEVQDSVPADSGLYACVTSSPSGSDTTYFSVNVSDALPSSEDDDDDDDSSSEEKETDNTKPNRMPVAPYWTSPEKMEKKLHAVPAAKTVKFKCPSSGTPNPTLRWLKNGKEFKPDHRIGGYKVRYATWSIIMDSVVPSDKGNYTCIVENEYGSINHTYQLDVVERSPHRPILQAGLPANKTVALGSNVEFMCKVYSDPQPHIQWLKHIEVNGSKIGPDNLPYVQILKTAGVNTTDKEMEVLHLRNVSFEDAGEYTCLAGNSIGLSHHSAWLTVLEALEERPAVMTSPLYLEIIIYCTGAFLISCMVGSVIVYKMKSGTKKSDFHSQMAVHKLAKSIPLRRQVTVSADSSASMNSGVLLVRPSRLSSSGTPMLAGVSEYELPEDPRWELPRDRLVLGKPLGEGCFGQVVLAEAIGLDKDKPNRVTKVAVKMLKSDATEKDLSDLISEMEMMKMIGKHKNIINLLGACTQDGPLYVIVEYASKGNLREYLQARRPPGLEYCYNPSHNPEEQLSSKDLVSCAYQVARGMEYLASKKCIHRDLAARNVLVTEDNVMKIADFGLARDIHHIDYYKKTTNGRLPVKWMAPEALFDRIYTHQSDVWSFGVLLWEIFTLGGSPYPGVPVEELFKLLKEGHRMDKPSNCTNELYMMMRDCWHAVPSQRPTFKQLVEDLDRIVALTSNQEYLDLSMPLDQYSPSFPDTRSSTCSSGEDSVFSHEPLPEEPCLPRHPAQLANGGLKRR
Sequence of human FGFR1c/βKlotho receptor (human) (chain, as listed by the source, chain 2 of 2): as the sequence (chain, as listed by the source, chain 2 of 2) above
Sequence of human FGFR2c/βKlotho receptor (human) (P21802 22-821, chain 1 of 2): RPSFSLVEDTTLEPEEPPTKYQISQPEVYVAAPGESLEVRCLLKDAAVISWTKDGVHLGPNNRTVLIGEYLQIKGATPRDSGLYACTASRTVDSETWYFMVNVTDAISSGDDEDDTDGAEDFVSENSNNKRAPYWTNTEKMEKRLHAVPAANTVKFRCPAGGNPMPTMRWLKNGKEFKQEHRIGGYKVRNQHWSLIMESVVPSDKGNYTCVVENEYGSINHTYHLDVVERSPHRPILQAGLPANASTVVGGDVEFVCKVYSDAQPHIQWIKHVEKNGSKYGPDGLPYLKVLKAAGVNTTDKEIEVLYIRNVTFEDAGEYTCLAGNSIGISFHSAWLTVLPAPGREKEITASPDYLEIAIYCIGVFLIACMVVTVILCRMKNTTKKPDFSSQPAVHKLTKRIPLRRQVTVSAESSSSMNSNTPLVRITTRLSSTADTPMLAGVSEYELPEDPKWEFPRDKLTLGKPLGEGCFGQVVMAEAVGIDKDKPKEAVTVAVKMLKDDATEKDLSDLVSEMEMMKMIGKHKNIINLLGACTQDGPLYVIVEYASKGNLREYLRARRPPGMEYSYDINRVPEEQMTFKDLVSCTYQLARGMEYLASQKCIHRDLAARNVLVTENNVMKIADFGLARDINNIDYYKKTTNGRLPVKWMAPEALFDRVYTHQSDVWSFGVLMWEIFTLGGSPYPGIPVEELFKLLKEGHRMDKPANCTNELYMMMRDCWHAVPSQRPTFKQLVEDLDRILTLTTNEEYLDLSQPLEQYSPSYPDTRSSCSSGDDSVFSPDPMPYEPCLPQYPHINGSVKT
Sequence of human FGFR2c/βKlotho receptor (human) (chain, as listed by the source, chain 2 of 2): as the sequence (chain, as listed by the source, chain 2 of 2) above

- EC50, luciferase reporter-based assay (receptor activation) [1]: 0.41 nM
- EC50, luciferase reporter-based assay (receptor activation) [2]: 0.3 nM
- EC50, luciferase reporter-based assay (receptor activation) [3]: 0.27 nM
- EC50, luciferase reporter-based assay (receptor activation) [4]: 2.23 nM
- EC50, luciferase reporter-based assay (receptor activation) [5]: 0.05 nM
Substance: FGF19 (from UniProt O95750 25-216) (ligand)

Reference: US20250066509A1
